Laboratory results as given in PMC7935541.

Legend:
[1] = biological target: 1065 toxin (IPF_1065, RelE/ParE-like toxin), C-terminally His-tagged (Microcystis aeruginosa PCC 7806); assay: SEC-MALS
[2] = biological target: 1067 antitoxin (IPF_1067, ParD-like antitoxin), C-terminally His-tagged (Microcystis aeruginosa PCC 7806); assay: […]; 20 mM HEPES pH 7.4, 150 mM NaCl, room temperature

Q: For “1067 antitoxin (IPF_1067), non-tagged, coexpressed with the 1065 toxin (natural protein)”, which stoichiometry N (antitoxin per toxin) [1] is on record?
A: 2

Q: “1067 antitoxin (IPF_1067, ParD-like antitoxin), C-terminally His-tagged (natural protein)” was tested. Which stoichiometry N [2] did it give?
A: 2
